In patent US20140023585A1, “177 LUTETIUM-LABELED BOMBESIN ANALOGS FOR RADIOTHERAPY” (UNIVERSITATSSPITAL BASEL, priority 2010, published 2014):

Key:
[1] = 37° C., 5% CO2, up to 4 days of incubation
Protocol: The mixture was incubated in a 5% CO2, 37° C. environment. At different time points, 100-μL aliquots (in triplicate) were removed and treated with 200 μL of EtOH to precipitate serum proteins. Samples were then centrifuged for 15 min at 500 rpm. […] The supernatant was analyzed with HPLC (eluents: A=0.1% trifluoroacetic acid in water and B=acetonitrile; gradient: 0 min 95% of A; 20 minutes 50% of A) to determine the stability of the peptide in serum.

[2] = system: PC-3 tumors; test: Dosimetry by MIRD methodology from biodistribution data; type: in vivo; conditions: mice
Description: Doses of 150-200 Gy in the tumor could be achieved considering a maximum activity of 450 MBq to be injected per animal. Kidneys were not critical instead it was the pancreas to be the dose limiting organ. (In contrast to rodent pancreas, human pancreas expresses only very low amounts of the GRPr.)

SMILES: CC(C)C[C@H](NC(=O)C[C@H](O)[C@H](CC(C)C)NC(=O)[C@H](Cc1c[nH]cn1)NC(=O)CNC(=O)[C@@H](NC(=O)[C@H](C)NC(=O)[C@H](Cc1c[nH]c2ccccc12)NC(=O)[C@H](CCC(N)=O)NC(=O)[C@@H](Cc1ccccc1)NC(=O)CN1CCC(NC(=O)CN2CCN(CC(=O)O)CCN(CC(=O)O)CCN(CC(=O)O)CC2)CC1)C(C)C)C(N)=O [compound 2, [^177Lu]-DOTA-4-amino-1-carboxymethylpiperidine-D-Phe-Gln-Trp-Ala-Val-Gly-His-Sta-Leu-NH2, metal not drawn]
- stability in human serum [1]: remarkable stability
- dose limiting organ [2]: pancreas
